From doi:10.1101/2024.10.02.616253 (bioRxiv, 2024)

Molecular target: BTN3A1 ectodomain (human, UniProt O00481)
Experiment: SPR

BTN3A1 ectodomain, sequence (O00481 30-254): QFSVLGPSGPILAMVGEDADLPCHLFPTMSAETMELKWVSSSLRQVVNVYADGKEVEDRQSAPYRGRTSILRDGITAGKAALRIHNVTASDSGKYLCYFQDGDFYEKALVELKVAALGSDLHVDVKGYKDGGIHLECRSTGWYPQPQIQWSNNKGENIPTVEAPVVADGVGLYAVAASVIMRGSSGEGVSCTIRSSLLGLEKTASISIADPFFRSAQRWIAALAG

B1: TH001 monoclonal antibody (antibody, V domains shown)
VH: EVHVKQSGAELARPGTSVKLSCKASGYTFTDYYLNWVKQRTGQGLEWIGEIYPGGGNTYYNEKFKGKATLTADKSSSTAYMQLSSLTSEDSAVYFCARRTTVVGDYWGQGTTLTVSS
VL: DVLMTQTPLSLPVSLGDQASISCRSSQSIVNSKGNTYLEWYVQKPGQSPKLLIYKVSNRFSGVPDRFSGSGSGTDFTLKISRVEAEDLGVYYCFQGSHVPWTFGGGTKLEIK
  binding result: binds
